Laboratory results reported in patent CN117643628A (SHANGHAI JUNSHI BIOSCIENCES CO LTD; JUNMENG BIOSCIENCES CO …, dated 2024).

Target: SARS-COV-2野生型毒株Spike蛋白的RBD (SARS-COV-2野生型毒株, UniProt P0DTC2 319-541)
Experiment: BLI (Octet), antibody captured on Protein A probes, RBD at 15 nM and 60 nM in solution

B1: HUR33变体 (antibody, human IgG1, kappa, V domains shown)
VH: QVQLVQSGSELKKPGASVKVSCKASGYTFTDYGMNWVRQAPGQGLEWMGWINTYSGEPTYADDFRGRFVFSLDTSVSTAYLQISSLKAEDTAVYYCARGGNWDWYFDVWGQGTLVTVSS
VL: DIQMTQSPSSLSASVGDRVTITCRASQSVSNFLHWYQQKPGKAPKLLIYYASQSISGVPSRFSGSGSGTDFTLTISSLQPEDFATYYCQQSNTWPLTFGQGTKLEIKR
notes: also called HUR33-1; HUR33 variant
B1: binds.
